Assay results reported in paper PMC2213029 (The Journal of Experimental Medicine, 2005).
Non-standard residues stand in square brackets, D forms with d. No end group written: not given here. pY = N[C@@H](Cc1ccc(OP(=O)(O)O)cc1)C(=O)O

T1: CD45-D1D2 (597–1213) C828S (human, UniProt P08575 622-1238, C828S, selenomethionine (Sel-Met) substituted in the crystals with the phosphopeptides)
T1 sequence (looked up): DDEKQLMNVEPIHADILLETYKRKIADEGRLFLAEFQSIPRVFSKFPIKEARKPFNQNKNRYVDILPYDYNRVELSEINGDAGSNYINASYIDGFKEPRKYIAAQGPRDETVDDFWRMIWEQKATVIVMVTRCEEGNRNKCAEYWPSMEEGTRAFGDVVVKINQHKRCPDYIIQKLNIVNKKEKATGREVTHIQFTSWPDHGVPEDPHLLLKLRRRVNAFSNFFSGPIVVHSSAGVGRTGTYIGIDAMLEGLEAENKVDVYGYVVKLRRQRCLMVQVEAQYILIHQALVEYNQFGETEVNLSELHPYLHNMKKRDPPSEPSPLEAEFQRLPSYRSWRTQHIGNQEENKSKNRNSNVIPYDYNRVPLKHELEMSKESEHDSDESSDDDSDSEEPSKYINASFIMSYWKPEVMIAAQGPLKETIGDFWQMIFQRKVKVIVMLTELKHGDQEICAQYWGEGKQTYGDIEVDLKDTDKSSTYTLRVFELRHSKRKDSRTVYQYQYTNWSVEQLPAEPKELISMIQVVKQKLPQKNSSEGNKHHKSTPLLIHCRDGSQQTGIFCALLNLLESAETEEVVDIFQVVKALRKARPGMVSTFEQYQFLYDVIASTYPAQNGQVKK


Target: T1, CD45-D1D2 (597–1213) C828S
Assay: crystal structure

Binder	binding result
QQQQNQL[pY]NELNLGRREE[pY]DVLDKRRG [CD3ζ ITAM-1 phosphopeptide (membrane proximal ITAM of the CD3ζ chain, both tyrosines phosphorylated)]	binds
NPT[pY]S [NPTpYS phosphopeptide derived from the polyoma middle T antigen]	binds
